Twelve variants from the FLAb antibody collection (doi:10.7554/elife.23156) can be followed below.

The chains are these.
B1: scFv; the commonest letter at each place (parent)
chain 1: EVKLDETGGGLVQPGRPMKLSCVASGFTFSDYWMNWVRQSPEKGLEWVAQIRNKPYNYETYYSDSVKGRFTISRDDSKSSVYLQMNNLRVEDMGIYYCTGSYYGMDYWGQGTSVTVS
chain 2: DVVMTQTPLSLPVSLGDQASISCRSSQSLVHSNGNTYLRWYLQKPGQSPKVLIYKVSNRFSGVPDRFSGSGSGTDFTLKISRVEAEDLGVYFCSQSTHVPWTFGGGTKLEIK

In the series “fluorescein” the parent is B1. The experiment in a line: Kd (Tite-Seq). The following applies: with fluorescein; format: scFv 4-4-20, heavy + light.
Variants of B1 are the subject of series [1]. As to the kind of experiment: yeast surface expression (ratio to wild type); higher = more expressed. The following applies: format: scFv 4-4-20, heavy + light.

For orientation: Kd means a measure of binding affinity in units of concentration. As to chain 1 EVKLDETGGGLVQPGRPMKLSCVASGFTFSDYWMNWVRQSPEKGLEWVAQIRNKPYNYETYYSDSVKGRFTISRDDSKSSVYLQMNNLRVEDMGIYYCTGTMYGMDYWGQGTSVTVS chain 2 DVVMTQTPLSLPVSLGDQASISCRSSQSLVHSNGNTYLRWYLQKPGQSPKVLIYKVSNRFSGVPDRFSGSGSGTDFTLKISRVEAEDLGVYFCSQSTHVPWTFGGGTKLEIK [chain 1 S101T Y102M], the Kd with fluorescein is ≥ 10 µM. In series [1], the yeast surface expression came out at 0.778.
For chain 1 EVKLDETGGGLVQPGRPMKLSCVASGFTFSDYWMNWVRQSPEKGLEWVAQIRNKPYNYETYYSDSVKGRFTISRDDSKSSVYLQMNNLRVEDMGIYYCTGVYYGMICWGQGTSVTVS chain 2 DVVMTQTPLSLPVSLGDQASISCRSSQSLVHSNGNTYLRWYLQKPGQSPKVLIYKVSNRFSGVPDRFSGSGSGTDFTLKISRVEAEDLGVYFCSQSTHVPWTFGGGTKLEIK [chain 1 S101V D106I Y107C] the same measures were ≥ 10 µM and 0.165.
As for chain 1 EVKLDETGGGLVQPGRPMKLSCVASGFTFSDYWMNWVRQSPEKGLEWVAQIRNKPYNYETYYSDSVKGRFTISRDDSKSSVYLQMNNLRVEDMGIYYCTGVYYGNDYWGQGTSVTVS chain 2 DVVMTQTPLSLPVSLGDQASISCRSSQSLVHSNGNTYLRWYLQKPGQSPKVLIYKVSNRFSGVPDRFSGSGSGTDFTLKISRVEAEDLGVYFCSQSTHVPWTFGGGTKLEIK [chain 1 S101V M105N], the dissociation constant Kd with fluorescein was ≥ 10 µM. The yeast surface expression in series [1] amounted to 0.675.
For chain 1 EVKLDETGGGLVQPGRPMKLSCVASGFTFSDYWMNWVRQSPEKGLEWVAQIRNKPYNYETYYSDSVKGRFTISRDDSKSSVYLQMNNLRVEDMGIYYCTGVYYGHDYWGQGTSVTVS chain 2 DVVMTQTPLSLPVSLGDQASISCRSSQSLVHSNGNTYLRWYLQKPGQSPKVLIYKVSNRFSGVPDRFSGSGSGTDFTLKISRVEAEDLGVYFCSQSTHVPWTFGGGTKLEIK [chain 1 S101V M105H] the same measures were ≥ 10 µM and 0.496.
Consider chain 1 EVKLDETGGGLVQPGRPMKLSCVASGFTFSDYWMNWVRQSPEKGLEWVAQIRNKPYNYETYYSDSVKGRFTISRDDSKSSVYLQMNNLRVEDMGIYYCTGTYQGMDYWIQGTSVTVS chain 2 DVVMTQTPLSLPVSLGDQASISCRSSQSLVHSNGNTYLRWYLQKPGQSPKVLIYKVSNRFSGVPDRFSGSGSGTDFTLKISRVEAEDLGVYFCSQSTHVPWTFGGGTKLEIK [chain 1 S101T Y103Q G109I], for which the Kd with fluorescein was ≥ 10 µM. In series [1], the yeast surface expression was 0.258.
The matching figures for chain 1 EVKLDETGGGLVQPGRPMKLSCVASGFTFSDYWMNWVRQSPEKGLEWVAQIRNKPYNYETYYSDSVKGRFTISRDDSKSSVYLQMNNLRVEDMGIYYCTGVYYGMDYWPQGTSVTVS chain 2 DVVMTQTPLSLPVSLGDQASISCRSSQSLVHSNGNTYLRWYLQKPGQSPKVLIYKVSNRFSGVPDRFSGSGSGTDFTLKISRVEAEDLGVYFCSQSTHVPWTFGGGTKLEIK [chain 1 S101V G109P]: ≥ 10 µM and 0.223.
The matching figures for chain 1 EVKLDETGGGLVQPGRPMKLSCVASGFTFSDYWMNWVRQSPEKGLEWVAQIRNKPYNYETYYSDSVKGRFTISRDDSKSSVYLQMNNLRVEDMGIYYCTGVYYGHDYHGQGTSVTVS chain 2 DVVMTQTPLSLPVSLGDQASISCRSSQSLVHSNGNTYLRWYLQKPGQSPKVLIYKVSNRFSGVPDRFSGSGSGTDFTLKISRVEAEDLGVYFCSQSTHVPWTFGGGTKLEIK [chain 1 S101V M105H W108H]: ≥ 10 µM and 0.3.
The matching figures for chain 1 EVKLDETGGGLVQPGRPMKLSCVASGFTFSDYWMNWVRQSPEKGLEWVAQIRNKPYNYETYYSDSVKGRFTISRDDSKSSVYLQMNNLRVEDMGIYYCTGTYPGMDYWGQGTSVTVS chain 2 DVVMTQTPLSLPVSLGDQASISCRSSQSLVHSNGNTYLRWYLQKPGQSPKVLIYKVSNRFSGVPDRFSGSGSGTDFTLKISRVEAEDLGVYFCSQSTHVPWTFGGGTKLEIK [chain 1 S101T Y103P]: ≥ 10 µM and 0.643.
chain 1 EVKLDETGGGLVQPGRPMKLSCVASGFTFSDYWMNWVRQSPEKGLEWVAQIRNKPYNYETYYSDSVKGRFTISRDDSKSSVYLQMNNLRVEDMGIYYCTGTYQGMDYWGQGTSVTVS chain 2 DVVMTQTPLSLPVSLGDQASISCRSSQSLVHSNGNTYLRWYLQKPGQSPKVLIYKVSNRFSGVPDRFSGSGSGTDFTLKISRVEAEDLGVYFCSQSTHVPWTFGGGTKLEIK [chain 1 S101T Y103Q]: the Kd with fluorescein is ≥ 10 µM. In addition, the yeast surface expression in series [1] came to 1.11.
The matching figures for chain 1 EVKLDETGGGLVQPGRPMKLSCVASGFTFSDYWMNWVRQSPEKGLEWVAQIRNKPYNYETYYSDSVKGRFTISRDDSKSSVYLQMNNLRVEDMGIYYCTGTYEKMDYWGQGTSVTVS chain 2 DVVMTQTPLSLPVSLGDQASISCRSSQSLVHSNGNTYLRWYLQKPGQSPKVLIYKVSNRFSGVPDRFSGSGSGTDFTLKISRVEAEDLGVYFCSQSTHVPWTFGGGTKLEIK [chain 1 S101T Y103E G104K]: ≥ 10 µM and 0.854.
The matching figures for chain 1 EVKLDETGGGLVQPGRPMKLSCVASGFTFSDYWMNWVRQSPEKGLEWVAQIRNKPYNYETYYSDSVKGRFTISRDDSKSSVYLQMNNLRVEDMGIYYCTGVYYGMDYWGQGTSVTVS chain 2 DVVMTQTPLSLPVSLGDQASISCRSSQSLVHSNGNTYLRWYLQKPGQSPKVLIYKVSNRFSGVPDRFSGSGSGTDFTLKISRVEAEDLGVYFCSQSTHVPWTFGGGTKLEIK [chain 1 S101V]: ≥ 10 µM and 0.496.
For chain 1 EVKLDETGGGLVQPGRPMKLSCVASGFTFSDYWMNWVRQSPEKGLEWVAQIRNKPYNYETYYSDSVKGRFTISRDDSKSSVYLQMNNLRVEDMGIYYCTGTYYGMDEWGQGTSVTVS chain 2 DVVMTQTPLSLPVSLGDQASISCRSSQSLVHSNGNTYLRWYLQKPGQSPKVLIYKVSNRFSGVPDRFSGSGSGTDFTLKISRVEAEDLGVYFCSQSTHVPWTFGGGTKLEIK [chain 1 S101T Y107E] the same measures were ≥ 10 µM and 0.565.
